Assays:
HeLa Kyoto [1] = experiment: solubility in G1/S (NP-40 vs SDS abundance) (log2 ratio); higher = more soluble; conditions: cell cycle stage: G1/S
HeLa Kyoto [2] = experiment: melting temperature (median over replicates), in situ; higher = more thermally stable
HeLa Kyoto [3] = experiment: solubility change mitosis vs G1/S (difference of NP-40 vs SDS log2 ratios) (log2 ratio difference); higher = more soluble in mitosis
HeLa Kyoto [4] = experiment: thermal stability score vs G1/S (z-score of summed log2 fold changes over temperatures); higher = more thermally stable than in G1/S
[5] = cell cycle stage: early G1 (4.5 h after nocodazole release)
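Throughout, for melting temperature (median over replicates), in situ: HeLa Kyoto cells synchronized by double thymidine or nocodazole block, proteins quantified by TMT10plex mass spectrometry, three independent biological replicates.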
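Throughout, for solubility change mitosis vs G1/S (difference of NP-40 vs SDS log2 ratios): synchronized HeLa Kyoto cells (double thymidine block for G1/S, nocodazole release for mitosis), protein amounts in NP-40 versus SDS lysates quantified by mass spectrometry, three biological replicates.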
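Throughout, for solubility in G1/S (NP-40 vs SDS abundance): HeLa Kyoto cells arrested at G1/S by double thymidine block, proteins quantified by TMT10plex mass spectrometry in mild NP-40 versus SDS extracts, three biological replicates.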
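Throughout, for thermal stability score vs G1/S (z-score of summed log2 fold changes over temperatures): synchronized HeLa Kyoto cells, proteins quantified by TMT10plex mass spectrometry, three biological replicates, mitosis taken 0.5 h after nocodazole release, G1/S directly after double thymidine block.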

With “MTTFGAVAEWRLPSLRRATLWIPQWFAKKAIFNSPLEAAMAFPHLQQPSFLLASLKADSINKPFAQQCQDLVKVIEDFPAKELHTIFPWLVESIFGSLDGVLVGWNLRCLQGRVNPVEYSIVMEFLDPGGPMMKLVYKLQAEDYKFDFPVSYLPGPVKASIQECILPDSPLYHNKVQFTPTGGLGLNLALNPFEYYIFFFALSLITQKPLPVSLHVRTSDCAYFILVDRYLSWFLPTEGSVPPPLSSSPGGTSPSPPPRTPAIPFASYGLHHTSLLKRHISHQTSVNADPASHEIWRSETLLQVFVEMWLHHYSLEMYQKMQSPHAKLEVLHYRLSVSSALYSPAQPSLQALHAYQESFTPTEEHVLVVRLLLKHLHAFANSLKPEQASPSAHSHATSPLEEFKRAAVPRFVQQKLYLFLQHCFGHWPLDASFRAVLEMWLSYLQPWRYAPDKQAPGSDSQPRCVSEKWAPFVQENLLMYTKLFVGFLNRALRTDLVSPKHALMVFRVAKVFAQPNLAEMIQKGEQLFLEPELVIPHRQHRLFTAPTFTGSFLSPWPPAVTDASFKVKSHVYSLEGQDCKYTPMFGPEARTLVLRLAQLITQAKHTAKSISDQCAESPAGHSFLSWLGFSSMDTNGSYTANDLDEMGQDSVRKTDEYLEKALEYLRQIFRLSEAQLRQFTLALGTTQDENGKKQLPDCIVGEDGLILTPLGRYQIINGLRRFEIEYQGDPELQPIRSYEIASLVRTLFRLSSAINHRFAGQMAALCSRDDFLGSFCRYHLTEPGLASRHLLSPVGRRQVAGHTRGPRLSLRFLGSYRTLVSLLLAFFVASLFCVGPLPCTLLLTLGYVLYASAMTLLTERGKLHQP [SMPD4]” the “solubility in G1/S (log2)” value (HeLa Kyoto [1]) was -0.601, the melting temperature (HeLa Kyoto [2]; cell cycle stage: G1/S) was 51.7 °C and the melting temperature (HeLa Kyoto [2]; cell cycle stage: mitosis) was 50.2 °C. For the same substance, the “solubility change mitosis (log2)” value (HeLa Kyoto [3]) was 0.185, the thermal stability score (HeLa Kyoto [4]; [5]) was -0.683 and the thermal stability score (HeLa Kyoto [4]; cell cycle stage: mitosis) was -0.99.

For “MADGGSERADGRIVKMEVDYSATVDQRLPECAKLAKEGRLQEVIETLLSLEKQTRTASDMVSTSRILVAVVKMCYEAKEWDLLNENIMLLSKRRSQLKQAVAKMVQQCCTYVEEITDLPIKLRLIDTLRMVTEGKIYVEIERARLTKTLATIKEQNGDVKEAASILQELQVETYGSMEKKERVEFILEQMRLCLAVKDYIRTQIISKKINTKFFQEENTEKLKLKYYNLMIQLDQHEGSYLSICKHYRAIYDTPCIQAESEKWQQALKSVVLYVILAPFDNEQSDLVHRISGDKKLEEIPKYKDLLKLFTTMELMRWSTLVEDYGMELRKGSLESPATDVFGSTEEGEKRWKDLKNRVVEHNIRIMAKYYTRITMKRMAQLLDLSVDESEAFLSNLVVNKTIFAKVDRLAGIINFQRPKDPNNLLNDWSQKLNSLMSLVNKTTHLIAKEEMIHNLQ [PSMD12]”, the “solubility in G1/S (log2)” value (HeLa Kyoto [1]) was 0.0925, the melting temperature (HeLa Kyoto [2]; cell cycle stage: G1/S) was 52.3 °C and the melting temperature (HeLa Kyoto [2]; cell cycle stage: mitosis) was 51.6 °C. For the same substance, the “solubility change mitosis (log2)” value (HeLa Kyoto [3]) was -0.104, the thermal stability score (HeLa Kyoto [4]; [5]) was 2.61 and the thermal stability score (HeLa Kyoto [4]; cell cycle stage: mitosis) was 2.56.

With “MAAAGRLPSSWALFSPLLAGLALLGVGPVPARALHNVTAELFGAEAWGTLAAFGDLNSDKQTDLFVLRERNDLIVFLADQNAPYFKPKVKVSFKNHSALITSVVPGDYDGDSQMDVLLTYLPKNYAKSELGAVIFWGQNQTLDPNNMTILNRTFQDEPLIMDFNGDLIPDIFGITNESNQPQILLGGNLSWHPALTTTSKMRIPHSHAFIDLTEDFTADLFLTTLNATTSTFQFEIWENLDGNFSVSTILEKPQNMMVVGQSAFADFDGDGHMDHLLPGCEDKNCQKSTIYLVRSGMKQWVPVLQDFSNKGTLWGFVPFVDEQQPTEIPIPITLHIGDYNMDGYPDALVILKNTSGSNQQAFLLENVPCNNASCEEARRMFKVYWELTDLNQIKDAMVATFFDIYEDGILDIVVLSKGYTKNDFAIHTLKNNFEADAYFVKVIVLSGLCSNDCPRKITPFGVNQPGPYIMYTTVDANGYLKNGSAGQLSQSAHLALQLPYNVLGLGRSANFLDHLYVGIPRPSGEKSIRKQEWTAIIPNSQLIVIPYPHNVPRSWSAKLYLTPSNIVLLTAIALIGVCVFILAIIGILHWQEKKADDREKRQEAHRFHFDAM [ITFG1]” the “solubility in G1/S (log2)” value (HeLa Kyoto [1]) was 0.327, the melting temperature (HeLa Kyoto [2]; cell cycle stage: G1/S) was 55.9 °C and the melting temperature (HeLa Kyoto [2]; cell cycle stage: mitosis) was 57.5 °C. The “solubility change mitosis (log2)” value (HeLa Kyoto [3]) was -0.259, the thermal stability score (HeLa Kyoto [4]; [5]) was 0.328 and the thermal stability score (HeLa Kyoto [4]; cell cycle stage: mitosis) was 0.713.

For “MGNSALRAHVETAQKTGVFQLKDRGLTEFPADLQKLTSNLRTIDLSNNKIESLPPLLIGKFTLLKSLSLNNNKLTVLPDEICNLKKLETLSLNNNHLRELPSTFGQLSALKTLSLSGNQLGALPPQLCSLRHLDVMDLSKNQIRSIPDSVGELQVIELNLNQNQISQISVKISCCPRLKILRLEENCLELSMLPQSILSDSQICLLAVEGNLFEIKKLRELEGYDKYMERFTATKKKFA [LRRC57]”, the “solubility in G1/S (log2)” value (HeLa Kyoto [1]) was 0.266, the melting temperature (HeLa Kyoto [2]; cell cycle stage: G1/S) was 53.2 °C and the melting temperature (HeLa Kyoto [2]; cell cycle stage: mitosis) was 53.6 °C. For the same substance, the “solubility change mitosis (log2)” value (HeLa Kyoto [3]) was 0.00239, the thermal stability score (HeLa Kyoto [4]; [5]) was -0.373 and the thermal stability score (HeLa Kyoto [4]; cell cycle stage: mitosis) was -0.56.

With “MAAVSLRLGDLVWGKLGRYPPWPGKIVNPPKDLKKPRGKKCFFVKFFGTEDHAWIKVEQLKPYHAHKEEMIKINKGKRFQQAVDAVEEFLRRAKGKDQTSSHNSSDDKNRRNSSEERSRPNSGDEKRKLSLSEGKVKKNMGEGKKRVSSGSSERGSKSPLKRAQEQSPRKRGRPPKDEKDLTIPESSTVKGMMAGPMAAFKWQPTASEPVKDADPHFHHFLLSQTEKPAVCYQAITKKLKICEEETGSTSIQAADSTAVNGSITPTDKKIGFLGLGLMGSGIVSNLLKMGHTVTVWNRTAEKCDLFIQEGARLGRTPAEVVSTCDITFACVSDPKAAKDLVLGPSGVLQGIRPGKCYVDMSTVDADTVTELAQVIVSRGGRFLEAPVSGNQQLSNDGMLVILAAGDRGLYEDCSSCFQAMGKTSFFLGEVGNAAKMMLIVNMVQGSFMATIAEGLTLAQVTGQSQQTLLDILNQGQLASIFLDQKCQNILQGNFKPDFYLKYIQKDLRLAIALGDAVNHPTPMAAAANEVYKRAKALDQSDNDMSAVYRAYIH [GLYR1]” the “solubility in G1/S (log2)” value (HeLa Kyoto [1]) was -1.74, the melting temperature (HeLa Kyoto [2]; cell cycle stage: G1/S) was 53.3 °C and the melting temperature (HeLa Kyoto [2]; cell cycle stage: mitosis) was 52.4 °C. The “solubility change mitosis (log2)” value (HeLa Kyoto [3]) was 1.01, the thermal stability score (HeLa Kyoto [4]; [5]) was 1.22 and the thermal stability score (HeLa Kyoto [4]; cell cycle stage: mitosis) was -1.43.

DIP2B was tested, and the “solubility in G1/S (log2)” value (HeLa Kyoto [1]) was -0.125, the melting temperature (HeLa Kyoto [2]; cell cycle stage: G1/S) was 53.4 °C and the melting temperature (HeLa Kyoto [2]; cell cycle stage: mitosis) was 53.1 °C. The “solubility change mitosis (log2)” value (HeLa Kyoto [3]) was -0.12, the thermal stability score (HeLa Kyoto [4]; [5]) was -1.32 and the thermal stability score (HeLa Kyoto [4]; cell cycle stage: mitosis) was -2.08.

“MDIRKFFGVIPSGKKLVSETVKKNEKTKSDEETLKAKKGIKEIKVNSSRKEDDFKQKQPSKKKRIIYDSDSESEETLQVKNAKKPPEKLPVSSKPGKISRQDPVTYISETDEEDDFMCKKAASKSKENGRSTNSHLGTSNMKKNEENTKTKNKPLSPIKLTPTSVLDYFGTGSVQRSNKKMVASKRKELSQNTDESGLNDEAIAKQLQLDEDAELERQLHEDEEFARTLAMLDEEPKTKKARKDTEAGETFSSVQANLSKAEKHKYPHKVKTAQVSDERKSYSPRKQSKYESSKESQQHSKSSADKIGEVSSPKASSKLAIMKRKEESSYKEIEPVASKRKENAIKLKGETKTPKKTKSSPAKKESVSPEDSEKKRTNYQAYRSYLNREGPKALGSKEIPKGAENCLEGLIFVITGVLESIERDEAKSLIERYGGKVTGNVSKKTNYLVMGRDSGQSKSDKAAALGTKIIDEDGLLNLIRTMPGKKSKYEIAVETEMKKESKLERTPQKNVQGKRKISPSKKESESKKSRPTSKRDSLAKTIKKETDVFWKSLDFKEQVAEETSGDSKARNLADDSSENKVENLLWVDKYKPTSLKTIIGQQGDQSCANKLLRWLRNWQKSSSEDKKHAAKFGKFSGKDDGSSFKAALLSGPPGVGKTTTASLVCQELGYSYVELNASDTRSKSSLKAIVAESLNNTSIKGFYSNGAASSVSTKHALIMDEVDGMAGNEDRGGIQELIGLIKHTKIPIICMCNDRNHPKIRSLVHYCFDLRFQRPRVEQIKGAMMSIAFKEGLKIPPPAMNEIILGANQDIRQVLHNLSMWCARSKALTYDQAKADSHRAKKDIKMGPFDVARKVFAAGEETAHMSLVDKSDLFFHDYSIAPLFVQENYIHVKPVAAGGDMKKHLMLLSRAADSICDGDLVDSQIRSKQNWSLLPAQAIYASVLPGELMRGYMTQFPTFPSWLGKHSSTGKHDRIVQDLALHMSLRTYSSKRTVNMDYLSLLRDALVQPLTSQGVDGVQDVVALMDTYYLMKEDFENIMEISSWGGKPSPFSKLDPKVKAAFTRAYNKEAHLTPYSLQAIKASRHSTSPSLDSEYNEELNEDDSQSDEKDQDAIETDAMIKKKTKSSKPSKPEKDKEPRKGKGKSSKK [RFC1]” was tested, and the “solubility in G1/S (log2)” value (HeLa Kyoto [1]) was -0.641, the melting temperature (HeLa Kyoto [2]; cell cycle stage: G1/S) was 47.2 °C and the melting temperature (HeLa Kyoto [2]; cell cycle stage: mitosis) was 49.5 °C. For the same substance, the “solubility change mitosis (log2)” value (HeLa Kyoto [3]) was 0.447, the thermal stability score (HeLa Kyoto [4]; [5]) was 3.61 and the thermal stability score (HeLa Kyoto [4]; cell cycle stage: mitosis) was 4.94.

With “MGKGDPNKPRGKMSSYAFFVQTCREEHKKKHPDSSVNFAEFSKKCSERWKTMSAKEKSKFEDMAKSDKARYDREMKNYVPPKGDKKGKKKDPNAPKRPPSAFFLFCSEHRPKIKSEHPGLSIGDTAKKLGEMWSEQSAKDKQPYEQKAAKLKEKYEKDIAAYRAKGKSEAGKKGPGRPTGSKKKNEPEDEEEEEEEEDEDEEEEDEDEE [HMGB2]” the “solubility in G1/S (log2)” value (HeLa Kyoto [1]) was 0.485, the melting temperature (HeLa Kyoto [2]; cell cycle stage: G1/S) was 58.1 °C and the melting temperature (HeLa Kyoto [2]; cell cycle stage: mitosis) was 56.7 °C. The “solubility change mitosis (log2)” value (HeLa Kyoto [3]) was 0.338, the thermal stability score (HeLa Kyoto [4]; [5]) was 0.292 and the thermal stability score (HeLa Kyoto [4]; cell cycle stage: mitosis) was -0.27.

“MSRRYDSRTTIFSPEGRLYQVEYAMEAIGHAGTCLGILANDGVLLAAERRNIHKLLDEVFFSEKIYKLNEDMACSVAGITSDANVLTNELRLIAQRYLLQYQEPIPCEQLVTALCDIKQAYTQFGGKRPFGVSLLYIGWDKHYGFQLYQSDPSGNYGGWKATCIGNNSAAAVSMLKQDYKEGEMTLKSALALAIKVLNKTMDVSKLSAEKVEIATLTRENGKTVIRVLKQKEVEQLIKKHEEEEAKAEREKKEKEQKEKDK [PSMA4]” was tested, and the “solubility in G1/S (log2)” value (HeLa Kyoto [1]) was 0.45, the melting temperature (HeLa Kyoto [2]; cell cycle stage: G1/S) was 59.5 °C and the melting temperature (HeLa Kyoto [2]; cell cycle stage: mitosis) was 60.5 °C. For the same substance, the “solubility change mitosis (log2)” value (HeLa Kyoto [3]) was -0.0614, the thermal stability score (HeLa Kyoto [4]; [5]) was -0.647 and the thermal stability score (HeLa Kyoto [4]; cell cycle stage: mitosis) was -0.541.

— the supplement of paper PMC5998384
